“Also recorded” adds a separate entry of the source.
Columns and labels:
[1] = system: pMAP38; assay: Western blot of phosphorylated MAP38 in COLO201; assay type: cell-based; details: COLO201, 72 h of treatment
[2] = system: human glioblastoma cells; assay: ROS production in human glioblastoma cells in primary culture; assay type: cell-based
Method: In the subsequent functional experiment, ROS production was measured over time. The graph in FIG. 11 relates to the acquisition of fluorescence signals proportional to the amount of cytoplasmic ROS in glioblastoma cells. The cells were treated with both the antibody and the tmCLIC1 channel blocker.

[3] = system: COLO201; assay: COLO201 spheroids, 3D culture; assay type: cell-based; details: treated 24 to 96 hours, area normalized on initial area
Method: To evaluate whether tmCLIC1omab is able to penetrate across tumor spheroids, a 3D culture was performed. After the complete formation of spheroids, treatments were added and the area was measured every 24 hours up to 96 hours. The area at each time point was then normalized on the initial spheroids' area.
Spheroids were formed with hanging-drop method and then plated in rounded 96 plates coated with 5% of agar. After the complete formation of spheroids, treatments were added and the area was measured every 24 hours up to 96 hours. The area at each time point was then normalized on the initial spheroids' area.

[4] = system: microglial cells; assay: ROS production in cultured microglial cells; assay type: cell-based, mice; details: after addition of β-amyloid and antibody
Method: A second functional experiment performed on microglial cells involved measuring the production of reactive oxygen species (ROS), which contribute to creating a highly oxidising environment harmful to the neurones. Once again (FIG. 5), a physiological increase in cytoplasmic ROS was recorded (baseline), with ROS production after addition of β-amyloid, and finally, cell oxidation during the simultaneous presence of amyloid peptide and the tmCLIC1omab antibody.

[5] = system: human glioblastoma cells; assay: Glioblastoma cells pre-treated with antibody, inoculated into the brain of immunodepressed mice, magnetic resonance scan; assay type: in vivo; details: cells incubated 72 hours with antibody before inoculation; scan two months after inoculation
Method: In the in vivo experiments, human glioblastoma cells were incubated for 72 hours with tmCLIC1omab antibody before being inoculated into the brain of immunodepressed mice.
Patient-derived neurospheres were mechanically dissociated, resuspended in […], and injected into the caudate nucleus (1 mm posterior, 3 mm left lateral, 3.5 mm deep relative to bregma) of 5-week-old female CD1 nu/nu mice (Charles River, Wilmington, MA). The cells were incubated with the antibody or the control isotype for 72 hours before implantation (10^5 cells) into the brain of immunodeficient mice. The experiments were conducted pursuant to Italian law (Order of the Executive 116/92, as amended), which transposes EU Directive 86/609 (Council Directive 86/609/EEC of 24 Nov. 1986 on the approximation of laws, regulations and administrative provisions of the Member States regarding the protection of animals used for experimental and other scientific purposes).

[6] = system: mouse glioblastoma cells; assay: Glioblastoma cell growth curves, polyclonal antibody versus tmCLIC1omab; assay type: cell-based; details: exposing cells for 96 hours
Method: The cells were seeded in 24-well plates (20,000 cells/well) and counted after 24, 48, 72 and 96 hours to construct the growth curve. The cells were collected and centrifuged, and the resuspended pellet was diluted 1:1 with Trypan Blue. An automated counter (Countess II, Thermo Fisher Scientific) was used to count the cells. All data were normalized to their controls.
The cells were plated in 24-well multiwell plates at a density of 10,000 cells/cm 2. The number of live and dead cells for each sample was counted after 72 hours with an automated counter (Countess II, Thermo Fisher Scientific), following the same process as used for the growth curves. All data were standardised to the corresponding controls.

[7] = system: Metalloproteinase 7 (MMP7); assay: Western blot of Metalloproteinase 7 in COLO201; assay type: cell-based; details: COLO201, 72 h of treatment
[8] = biological target: T1, tmCLIC1 (Homo sapiens, UniProt O00299); assay: Immunofluorescence on monocytes isolated from peripheral blood; assay type: cell-based; details: monocytes of Alzheimer's disease patients and controls, fluorescent secondary antibody
T1 construct: monocytes isolated from the peripheral blood of patients with a diagnosis of Alzheimer's disease and controls; endogenous in cells; host or cells: human peripheral blood monocytes (Alzheimer's disease patients and healthy controls)
Method: For each individual, 8 ml of peripheral blood was collected in BD Vacutainer® CPT™ test tubes with sodium citrate, gently mixed by inversion and centrifuged at room temperature for 20 min. at 1600 rpm to separate three distinct phases: a bottom layer containing red blood cells, an intermediate layer containing mononuclear cells, and a top layer containing plasma. The layer of mononuclear cells was collected together with part of the plasma and transferred to a centrifuge tube. PBS was added until a final volume of […] was reached, and it was gently mixed by inversion and centrifuged for 10 min. at 300 rpm. The resulting pellet underwent two further washes in 5 ml of PBS, and was used for the subsequent experiments.
The pellet of mononuclear cells isolated from the blood was counted and divided into samples containing an equal number of cells (1×10^6 cells/sample). Each sample was resuspended in 90 μl of cold staining solution (0.5% BSA, 2 mM EDTA in PBS) and, after the addition of 10 μl of FcR blocker (Miltenyi Biotec), was incubated in ice for 15 min. 10 μl of primary antibody diluted in staining solution was then added, and the sample was incubated for 1 h in ice. At the end of the incubation period, each sample was washed with 1 ml of cold staining solution and centrifuged at 350 rpm for 5 min. […]

B1: tmCLIC1omab: IgG1 class antibody containing the heavy chain variable region SEQ ID NO:13 and the light chain variable region SEQ ID NO:14 (antibody, listed as Mus musculus, V domains shown)
VH: EVMLVESGGGLVKPGGSLKLSCAASGFAFSNYAMSWIRQIPEKRLEWVATISTGGSSTFYPDSVKGRFTISRDNAKNTLYLQMSSLRSEDTAMYYCTRHAYEAWFAYWGQGTLVTVSA
VL: QIVLTQSPALMSASPGEKVTMTCSASSSVSYMYWYQQRPRSSPKPWIYLTSTLASGVPTRFSGSGSGTSYSLTISSMEAEDAATYYCQQWNSHPLTFGSGTKLEIK
- expression of pMAP38 [1]: downregulated
- fall in ROS production ([2]; FIG. 11 legend, versus control): about fourfold
- reduction of the slope of the ROS increase curve ([2]; fluorescence signals proportional to cytoplasmic ROS): about fivefold
- spheroids' area / proliferation of spheroids versus control [3]: significantly smaller compared to the control from 48 h; also recorded: impair proliferation of spheroids significantly after 48 hours
- ROS production [4]: falls to the control level
- tumour mass on magnetic resonance scan [5]: much smaller mass
- percentage of cell death [6]: 15%
- expression of Metalloproteinase 7 [7]: mainly abolished
- specificity of staining on monocytes [8]: specificity of the antibody for the membrane protein
